Tested on: Escherichia coli TOP10
Assay: shrunken log2 fold change of peptide-encoding DNA abundance (4.5 h post-induction vs induction); higher = less antimicrobial activity (less host growth inhibition)
Settings: time post-induction: 4.5 h; library: site-saturation at positions 5, 18, 19, 20
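Also: peptides expressed intracellularly from a pBAD plasmid library in pooled LB shake-flask culture, induced with 0.3% L-arabinose, DNA abundance read by NGS, three biological replicates, DESeq2 with apeglm shrinkage.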

Sequence	shrunken log2 fold change
RRIRWRPPRLPRPRPRPLTYPRP	-0.423
RRIRYRPPRLPRPRPRPQINPRP	-0.669
RRIRSRPPRLPRPRPRPCNHPRP	-0.361
RRIRVRPPRLPRPRPRPYHYPRP	-1.93
RRIRCRPPRLPRPRPRPLWDPRP	-0.386
RRIRDRPPRLPRPRPRPDANPRP	0.163
RRIRQRPPRLPRPRPRPNCKPRP	-0.555
RRIRCRPPRLPRPRPRPITVPRP	-0.222
RRIRSRPPRLPRPRPRPGPDPRP	0.332
RRIRRRPPRLPRPRPRPAVHPRP	0.321
RRIRTRPPRLPRPRPRPLICPRP	-0.277
RRIRNRPPRLPRPRPRPIKIPRP	-0.357
RRIRGRPPRLPRPRPRPNLNPRP	0.0742
RRIRIRPPRLPRPRPRPKFCPRP	-0.639
RRIRSRPPRLPRPRPRPVTAPRP	-0.0769
RRIRPRPPRLPRPRPRPMQMPRP	0.00304
RRIRPRPPRLPRPRPRPHCGPRP	-0.168
RRIRIRPPRLPRPRPRPPYPPRP	-0.188
RRIRSRPPRLPRPRPRPGICPRP	0.137
RRIRMRPPRLPRPRPRPGYNPRP	-0.282
RRIRRRPPRLPRPRPRPKWNPRP	0.0781
RRIRKRPPRLPRPRPRPYEMPRP	0.138
RRIRSRPPRLPRPRPRPDPTPRP	0.035
RRIRYRPPRLPRPRPRPGIVPRP	-0.384
RRIRMRPPRLPRPRPRPCWIPRP	-0.351

Sequence	shrunken log2 fold change
RRIRFRPPRLPRPRPRPSQKPRP	-0.0426
RRIRNRPPRLPRPRPRPRSDPRP	0.0587
RRIRYRPPRLPRPRPRPRTRPRP	-0.0272
RRIRCRPPRLPRPRPRPHVFPRP	0.161
RRIRHRPPRLPRPRPRPGLLPRP	-0.0335
RRIRIRPPRLPRPRPRPMSWPRP	-0.402
RRIRNRPPRLPRPRPRPFAVPRP	-0.398
RRIRPRPPRLPRPRPRPEEIPRP	-0.00277
RRIRHRPPRLPRPRPRPLPQPRP	0.348
RRIRDRPPRLPRPRPRPENDPRP	0.41
RRIRYRPPRLPRPRPRPCAFPRP	-0.353
RRIRIRPPRLPRPRPRPCQPPRP	-0.378
RRIRDRPPRLPRPRPRPPCPPRP	0.173
RRIRGRPPRLPRPRPRPFWPPRP	0.653
RRIRNRPPRLPRPRPRPVISPRP	0.156
RRIRHRPPRLPRPRPRPVITPRP	0.0477
RRIRCRPPRLPRPRPRPRSGPRP	0.694
RRIRVRPPRLPRPRPRPIYFPRP	-0.23
RRIRYRPPRLPRPRPRPVDKPRP	-0.00804
RRIRNRPPRLPRPRPRPDLIPRP	-0.172
RRIRHRPPRLPRPRPRPLCDPRP	-0.397
RRIRHRPPRLPRPRPRPCYTPRP	0.0618
RRIRARPPRLPRPRPRPKGYPRP	0.049
RRIRLRPPRLPRPRPRPNAGPRP	0.0644
RRIRMRPPRLPRPRPRPLGHPRP	0.751

Sequence	shrunken log2 fold change
RRIRFRPPRLPRPRPRPRLAPRP	0.69
RRIRLRPPRLPRPRPRPIFLPRP	-0.333
RRIRMRPPRLPRPRPRPVFEPRP	0.59
RRIRRRPPRLPRPRPRPVRFPRP	0.632
RRIRTRPPRLPRPRPRPRVMPRP	0.0867
RRIRYRPPRLPRPRPRPEYGPRP	-0.249
RRIRQRPPRLPRPRPRPWYGPRP	-0.191
RRIRWRPPRLPRPRPRPKMSPRP	0.163
RRIRQRPPRLPRPRPRPCLAPRP	0.297
RRIRVRPPRLPRPRPRPQNWPRP	0.0353
RRIRYRPPRLPRPRPRPDASPRP	-0.00663
RRIRCRPPRLPRPRPRPCNPPRP	-0.23
RRIRQRPPRLPRPRPRPTSEPRP	0.015
RRIRMRPPRLPRPRPRPTEAPRP	0.0796
RRIRTRPPRLPRPRPRPNPPPRP	0.199
RRIRERPPRLPRPRPRPKTEPRP	-0.0578
RRIRQRPPRLPRPRPRPCLKPRP	-0.286
RRIRIRPPRLPRPRPRPKVWPRP	-0.0123
RRIRTRPPRLPRPRPRPGFVPRP	-0.0603
RRIRYRPPRLPRPRPRPYARPRP	-0.0987
RRIRWRPPRLPRPRPRPTIMPRP	-0.0533
RRIRYRPPRLPRPRPRPFTAPRP	-0.311
RRIRIRPPRLPRPRPRPWWPPRP	0.027
RRIRDRPPRLPRPRPRPPIMPRP	0.0621
RRIRKRPPRLPRPRPRPLWPPRP	0.46

Sequence	shrunken log2 fold change
RRIRLRPPRLPRPRPRPHIDPRP	-0.135
RRIRQRPPRLPRPRPRPTTRPRP	0.215
RRIRIRPPRLPRPRPRPPACPRP	0.498
RRIRHRPPRLPRPRPRPWIDPRP	-0.00448
RRIRWRPPRLPRPRPRPPHDPRP	0.738
RRIRPRPPRLPRPRPRPIGFPRP	0.2
RRIRFRPPRLPRPRPRPPTHPRP	0.22
RRIRQRPPRLPRPRPRPELLPRP	0.534
RRIRSRPPRLPRPRPRPKHYPRP	-0.233
RRIRHRPPRLPRPRPRPNDSPRP	-0.072
RRIRPRPPRLPRPRPRPLDLPRP	-0.102
RRIRARPPRLPRPRPRPQYFPRP	-0.153
RRIRLRPPRLPRPRPRPGPHPRP	-0.0887
RRIRERPPRLPRPRPRPGDLPRP	-0.0898
RRIRWRPPRLPRPRPRPPNYPRP	-0.0821
RRIRFRPPRLPRPRPRPDCQPRP	0.0422
RRIRTRPPRLPRPRPRPELDPRP	0.641
RRIRGRPPRLPRPRPRPVCGPRP	0.866
RRIRQRPPRLPRPRPRPLVVPRP	0.0686
RRIRRRPPRLPRPRPRPSSPPRP	0.00935
RRIRLRPPRLPRPRPRPPMGPRP	0.194
RRIRCRPPRLPRPRPRPAIVPRP	-0.37
RRIRIRPPRLPRPRPRPKYQPRP	-0.615
RRIRWRPPRLPRPRPRPIQPPRP	0.0851
RRIRHRPPRLPRPRPRPYYNPRP	-1.28

Sequence	shrunken log2 fold change
RRIRFRPPRLPRPRPRPMMGPRP	-0.0671
RRIRERPPRLPRPRPRPAWRPRP	0.532
RRIRCRPPRLPRPRPRPAQNPRP	0.586
RRIRTRPPRLPRPRPRPRPSPRP	0.703
RRIRPRPPRLPRPRPRPSRHPRP	-0.0917
RRIRGRPPRLPRPRPRPCWQPRP	0.153
RRIRMRPPRLPRPRPRPLIWPRP	0.246
RRIRNRPPRLPRPRPRPTTLPRP	-0.294
RRIRWRPPRLPRPRPRPSMQPRP	-0.0561
RRIRERPPRLPRPRPRPVEPPRP	0.0248
RRIRMRPPRLPRPRPRPYPQPRP	0.0818
RRIRYRPPRLPRPRPRPSMWPRP	-1.68
RRIRLRPPRLPRPRPRPSLVPRP	-0.0388
RRIRMRPPRLPRPRPRPAYCPRP	0.075
RRIRARPPRLPRPRPRPYAEPRP	-0.104
RRIRSRPPRLPRPRPRPQLRPRP	0.123
RRIRLRPPRLPRPRPRPDAGPRP	0.0316
RRIRHRPPRLPRPRPRPFHIPRP	-0.0345
RRIRKRPPRLPRPRPRPMVSPRP	0.0111
RRIRTRPPRLPRPRPRPWGLPRP	0.00838
RRIRIRPPRLPRPRPRPGKPPRP	0.217
RRIRDRPPRLPRPRPRPDMKPRP	-0.00136
RRIRARPPRLPRPRPRPMTTPRP	0.505
RRIRCRPPRLPRPRPRPFIHPRP	-1.43
RRIRQRPPRLPRPRPRPGVKPRP	0.0204

Source: the supplement of paper PMC9112550, “Optimization of the antimicrobial peptide Bac7 by deep mutational scanning” (BMC Biology, 2022)
